Test results taken from the supplement of paper PMC10065799, “High-throughput profiling of sequence recognition by tyrosine kinases and SH2 domains using bacterial peptide display” (eLife, 2023).

How the values were obtained:
SHP2-C SH2 = assay: SH2 binding enrichment of the phosphorylated peptide, bacterial display (enrichment ratio); higher = better substrate or ligand; peptides without Tyr show the background
c-Src SH2 = assay: as above
Grb2 SH2 = Grb2 SH2 (UniProt P62993); assay: as above
FGFR3 = FGFR3 (UniProt P22607); assay: phosphorylation enrichment, bacterial display (enrichment ratio); higher = better substrate or ligand; peptides without Tyr show the background
Sequence of FGFR3 (P22607 whole entry, looked up): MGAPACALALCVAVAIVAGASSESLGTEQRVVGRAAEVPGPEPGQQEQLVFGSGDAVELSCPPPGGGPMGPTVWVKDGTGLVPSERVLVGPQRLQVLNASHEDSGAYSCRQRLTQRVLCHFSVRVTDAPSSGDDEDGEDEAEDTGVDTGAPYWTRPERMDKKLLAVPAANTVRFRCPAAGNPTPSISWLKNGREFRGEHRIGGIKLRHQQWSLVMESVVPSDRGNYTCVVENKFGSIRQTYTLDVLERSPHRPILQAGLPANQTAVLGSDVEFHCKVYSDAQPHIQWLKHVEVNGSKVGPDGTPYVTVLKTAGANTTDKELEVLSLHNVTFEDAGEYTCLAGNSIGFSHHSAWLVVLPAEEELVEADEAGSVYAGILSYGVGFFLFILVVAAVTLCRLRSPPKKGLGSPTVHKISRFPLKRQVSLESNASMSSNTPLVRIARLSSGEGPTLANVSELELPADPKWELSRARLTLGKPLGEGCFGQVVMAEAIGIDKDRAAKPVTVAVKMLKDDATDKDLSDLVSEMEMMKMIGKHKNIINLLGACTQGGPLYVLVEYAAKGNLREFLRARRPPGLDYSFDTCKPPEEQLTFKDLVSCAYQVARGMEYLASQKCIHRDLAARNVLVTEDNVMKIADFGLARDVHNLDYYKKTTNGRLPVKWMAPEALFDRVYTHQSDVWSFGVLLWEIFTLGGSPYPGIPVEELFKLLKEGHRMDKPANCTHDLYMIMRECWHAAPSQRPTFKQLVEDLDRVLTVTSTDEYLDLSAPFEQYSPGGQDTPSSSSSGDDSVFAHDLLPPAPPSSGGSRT

EPHB1 = EPHB1 (UniProt P54762); assay: as above
Sequence of EPHB1 (P54762 whole entry, looked up): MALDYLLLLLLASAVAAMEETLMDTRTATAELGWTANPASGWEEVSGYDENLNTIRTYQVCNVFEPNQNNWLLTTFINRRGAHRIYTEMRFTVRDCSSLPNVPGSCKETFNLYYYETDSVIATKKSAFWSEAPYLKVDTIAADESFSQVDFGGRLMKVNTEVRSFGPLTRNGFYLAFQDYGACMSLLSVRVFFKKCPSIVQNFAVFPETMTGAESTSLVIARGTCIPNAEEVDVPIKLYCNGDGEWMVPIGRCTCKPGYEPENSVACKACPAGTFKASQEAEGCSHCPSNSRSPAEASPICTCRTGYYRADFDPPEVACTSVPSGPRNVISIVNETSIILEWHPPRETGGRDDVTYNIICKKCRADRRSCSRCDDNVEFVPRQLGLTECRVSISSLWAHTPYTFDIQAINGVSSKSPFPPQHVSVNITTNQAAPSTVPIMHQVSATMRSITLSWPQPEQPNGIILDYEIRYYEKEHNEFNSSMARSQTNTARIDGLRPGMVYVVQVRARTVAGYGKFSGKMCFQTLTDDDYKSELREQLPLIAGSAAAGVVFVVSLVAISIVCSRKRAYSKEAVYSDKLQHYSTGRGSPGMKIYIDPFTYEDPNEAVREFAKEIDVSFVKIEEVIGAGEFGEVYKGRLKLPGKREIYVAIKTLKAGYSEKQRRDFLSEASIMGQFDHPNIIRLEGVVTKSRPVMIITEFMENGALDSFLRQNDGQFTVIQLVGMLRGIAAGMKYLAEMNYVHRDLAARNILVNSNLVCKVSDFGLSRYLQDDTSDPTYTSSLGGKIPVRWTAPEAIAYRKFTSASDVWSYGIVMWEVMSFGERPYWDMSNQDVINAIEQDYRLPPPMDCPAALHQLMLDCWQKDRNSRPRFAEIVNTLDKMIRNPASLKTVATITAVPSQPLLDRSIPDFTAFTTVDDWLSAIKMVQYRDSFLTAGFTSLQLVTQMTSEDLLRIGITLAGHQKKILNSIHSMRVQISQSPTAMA

c-Src = assay: as above
FGFR1 = FGFR1 (UniProt P11362); assay: as above
Sequence of FGFR1 (P11362 whole entry, looked up): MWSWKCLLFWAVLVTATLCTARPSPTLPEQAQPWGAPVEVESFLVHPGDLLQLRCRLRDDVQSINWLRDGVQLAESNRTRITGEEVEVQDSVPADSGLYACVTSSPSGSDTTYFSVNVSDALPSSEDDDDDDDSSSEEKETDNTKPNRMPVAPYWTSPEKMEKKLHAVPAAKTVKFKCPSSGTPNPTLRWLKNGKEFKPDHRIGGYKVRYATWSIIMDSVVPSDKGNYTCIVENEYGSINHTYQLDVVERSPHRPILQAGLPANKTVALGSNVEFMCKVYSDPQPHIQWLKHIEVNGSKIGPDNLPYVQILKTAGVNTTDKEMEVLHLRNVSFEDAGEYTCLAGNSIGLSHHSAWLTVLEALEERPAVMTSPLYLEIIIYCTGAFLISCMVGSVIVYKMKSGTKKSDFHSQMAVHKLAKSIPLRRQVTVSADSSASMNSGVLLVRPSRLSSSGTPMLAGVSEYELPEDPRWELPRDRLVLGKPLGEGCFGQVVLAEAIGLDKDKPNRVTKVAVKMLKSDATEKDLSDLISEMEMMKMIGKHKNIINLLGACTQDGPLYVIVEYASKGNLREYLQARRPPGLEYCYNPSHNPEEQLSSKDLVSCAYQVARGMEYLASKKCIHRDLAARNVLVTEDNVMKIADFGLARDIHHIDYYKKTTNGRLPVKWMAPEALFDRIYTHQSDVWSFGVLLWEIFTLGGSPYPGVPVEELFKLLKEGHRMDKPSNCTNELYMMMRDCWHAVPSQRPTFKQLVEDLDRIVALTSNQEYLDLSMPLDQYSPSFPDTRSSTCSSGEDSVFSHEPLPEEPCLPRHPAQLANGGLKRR

AncSZ = assay: as above
Fyn = Fyn (UniProt P06241); assay: as above
Sequence of Fyn (P06241 whole entry, looked up): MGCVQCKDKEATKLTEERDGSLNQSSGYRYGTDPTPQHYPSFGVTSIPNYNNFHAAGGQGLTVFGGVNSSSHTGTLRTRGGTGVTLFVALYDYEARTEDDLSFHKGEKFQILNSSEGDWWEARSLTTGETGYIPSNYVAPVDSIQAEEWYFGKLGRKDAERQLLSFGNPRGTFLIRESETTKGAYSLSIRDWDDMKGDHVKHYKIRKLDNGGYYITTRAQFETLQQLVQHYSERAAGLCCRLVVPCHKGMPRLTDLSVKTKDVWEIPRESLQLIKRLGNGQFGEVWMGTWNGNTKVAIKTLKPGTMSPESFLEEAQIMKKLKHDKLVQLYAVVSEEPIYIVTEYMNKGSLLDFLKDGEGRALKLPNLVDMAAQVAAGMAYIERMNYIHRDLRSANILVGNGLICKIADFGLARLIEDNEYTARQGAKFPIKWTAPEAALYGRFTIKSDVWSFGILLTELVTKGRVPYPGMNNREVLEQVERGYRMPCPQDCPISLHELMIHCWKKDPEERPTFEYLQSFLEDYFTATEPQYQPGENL

MERTK = MERTK (UniProt Q12866); assay: as above
Sequence of MERTK (Q12866 whole entry, looked up): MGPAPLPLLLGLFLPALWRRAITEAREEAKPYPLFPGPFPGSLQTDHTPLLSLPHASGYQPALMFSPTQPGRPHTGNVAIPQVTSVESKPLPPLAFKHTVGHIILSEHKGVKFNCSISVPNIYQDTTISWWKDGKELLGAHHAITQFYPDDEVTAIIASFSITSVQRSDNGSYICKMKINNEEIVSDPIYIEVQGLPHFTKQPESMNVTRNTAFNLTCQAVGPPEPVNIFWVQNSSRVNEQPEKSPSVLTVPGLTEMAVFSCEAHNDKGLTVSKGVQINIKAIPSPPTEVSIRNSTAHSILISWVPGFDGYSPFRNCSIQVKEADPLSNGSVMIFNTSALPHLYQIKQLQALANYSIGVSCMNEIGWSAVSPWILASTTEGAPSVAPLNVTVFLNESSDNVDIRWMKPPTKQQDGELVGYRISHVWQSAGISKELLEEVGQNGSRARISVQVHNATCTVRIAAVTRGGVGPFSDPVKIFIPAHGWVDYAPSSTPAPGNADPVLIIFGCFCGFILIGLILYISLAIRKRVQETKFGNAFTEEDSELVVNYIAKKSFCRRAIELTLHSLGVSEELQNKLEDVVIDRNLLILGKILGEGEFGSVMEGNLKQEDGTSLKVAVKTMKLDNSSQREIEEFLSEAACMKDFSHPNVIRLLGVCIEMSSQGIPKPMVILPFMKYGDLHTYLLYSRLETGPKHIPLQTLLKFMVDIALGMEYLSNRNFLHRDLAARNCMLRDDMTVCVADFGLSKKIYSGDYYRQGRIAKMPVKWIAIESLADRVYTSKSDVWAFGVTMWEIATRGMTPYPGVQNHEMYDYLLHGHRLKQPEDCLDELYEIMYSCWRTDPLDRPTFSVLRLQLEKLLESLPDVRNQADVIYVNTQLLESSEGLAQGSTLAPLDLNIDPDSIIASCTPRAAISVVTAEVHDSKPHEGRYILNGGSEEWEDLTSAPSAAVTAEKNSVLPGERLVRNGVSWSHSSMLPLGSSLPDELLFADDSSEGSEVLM

c-Abl (mouse) = assay: as above
Hck = Hck (UniProt P08631); assay: as above
Sequence of Hck (P08631 whole entry, looked up): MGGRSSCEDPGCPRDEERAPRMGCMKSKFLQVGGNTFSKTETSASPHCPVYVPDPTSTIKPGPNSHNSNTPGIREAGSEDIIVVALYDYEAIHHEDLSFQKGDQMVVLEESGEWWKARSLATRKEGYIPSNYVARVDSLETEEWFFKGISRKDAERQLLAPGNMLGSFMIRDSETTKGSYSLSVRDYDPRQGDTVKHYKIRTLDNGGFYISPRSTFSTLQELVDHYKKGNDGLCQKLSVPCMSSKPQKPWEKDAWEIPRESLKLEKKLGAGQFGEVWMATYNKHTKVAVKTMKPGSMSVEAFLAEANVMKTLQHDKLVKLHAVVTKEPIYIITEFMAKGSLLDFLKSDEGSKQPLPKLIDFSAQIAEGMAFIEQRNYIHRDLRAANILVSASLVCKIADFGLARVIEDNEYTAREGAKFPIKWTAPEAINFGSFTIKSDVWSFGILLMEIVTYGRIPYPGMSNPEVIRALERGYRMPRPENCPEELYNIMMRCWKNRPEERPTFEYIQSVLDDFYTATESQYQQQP

Fer (mouse) = assay: as above
Fes = Fes (UniProt P07332); assay: as above
Jak2 = Jak2 (UniProt O60674); assay: as above
EPHB2 = EPHB2 (UniProt P29323); assay: as above
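Wherever SH2 binding enrichment of the phosphorylated peptide, bacterial display is given: peptide library displayed on the E. coli surface as eCPX fusions, selected cells deep-sequenced, score is each peptide's frequency after selection divided by its frequency in the input.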
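Wherever phosphorylation enrichment, bacterial display is given: 11-residue human phosphosite peptides and single-mutation variants displayed on the E. coli surface, counted by deep sequencing, each peptide's frequency after selection divided by its frequency in the unselected input library; frequency after pTyr selection over input frequency; kinase dosed for 20-30% of maximal phosphorylation in three min.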

Sequence of Grb2 SH2 (P62993 whole entry, looked up): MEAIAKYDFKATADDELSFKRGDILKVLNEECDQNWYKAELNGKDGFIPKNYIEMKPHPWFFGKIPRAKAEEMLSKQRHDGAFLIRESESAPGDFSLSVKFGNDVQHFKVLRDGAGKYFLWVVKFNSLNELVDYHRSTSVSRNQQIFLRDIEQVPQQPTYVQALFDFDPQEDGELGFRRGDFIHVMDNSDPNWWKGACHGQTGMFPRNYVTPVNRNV

Row | Sequence | SH2 binding enrichment (SHP2-C SH2) | SH2 binding enrichment (c-Src SH2) | SH2 binding enrichment (Grb2 SH2) | phosphorylation enrichment (FGFR3) | phosphorylation enrichment (EPHB1) | phosphorylation enrichment (c-Src) | phosphorylation enrichment (FGFR1) | phosphorylation enrichment (AncSZ) | phosphorylation enrichment (Fyn) | phosphorylation enrichment (MERTK) | phosphorylation enrichment (c-Abl (mouse)) | phosphorylation enrichment (Hck) | phosphorylation enrichment (Fer (mouse)) | phosphorylation enrichment (Fes) | phosphorylation enrichment (Jak2) | phosphorylation enrichment (EPHB2)
1 | RHPYFYAPELL [ALB_Y174] | 0.891 | 0.796 | 1.34 | 10.8 | 0.564 | 0.776 | 12.7 | 1.38 | 0.517 | 0.622 | 0.694 | 0.474 | 0.476 | 1.19 | 1.13 | 0.762
2 | RIFDYYSARKT [STOX1_Y858_A863T] | 0.849 | 0.534 | 0.701 | 0.48 | 0.521 | 0.473 | 0.503 | 0.531 | 0.402 | 1.37 | 0.259 | 0.982 | 0.441 | 0.665 | 1.18 | 0.439
3 | RKGGSYTQAAS [HLA-A_Y344] | 0.584 | 1.06 | 1.07 | 0.563 | 0.446 | 0.384 | 0.442 | 0.631 | 0.465 | 0.461 | 0.902 | 0.443 | 0.699 | 0.885 | 0.637 | 0.399
4 | RKLASYRSCLL [DHX37_Y1080] | 1.04 | 0.861 | 1.04 | 0.617 | 0.321 | 0.486 | 0.581 | 0.75 | 0.515 | 0.356 | 0.627 | 0.468 | 0.768 | 0.811 | 0.633 | 0.492
5 | RKLVDYNSARH [BIN1_Y150_D151N] | 0.814 | 0.686 | 0.972 | 0.326 | 0.311 | 0.378 | 0.376 | 0.559 | 0.389 | 0.393 | 0.548 | 0.383 | 0.419 | 0.568 | 0.425 | 0.338
6 | RLAKTYETTLE [ALB_Y377] | 0.569 | 0.473 | 0.834 | 0.895 | 0.555 | 0.758 | 0.711 | 0.86 | 0.752 | 0.596 | 0.955 | 0.622 | 0.721 | 1.39 | 1.09 | 0.855
7 | RLEKEYFDQHF [NPC1_Y394] | 0.821 | 0.604 | 0.865 | 0.959 | 0.717 | 0.571 | 1.39 | 1.13 | 0.341 | 0.631 | 0.795 | 0.665 | 0.5 | 1.29 | 1.44 | 0.707
8 | RLLRGHDQYAY [HLA-B_Y137] | 1.37 | 1.29 | 1.19 | 0.851 | 0.673 | 0.456 | 0.69 | 0.672 | 0.57 | 0.473 | 0.496 | 0.6 | 0.467 | 0.808 | 0.56 | 0.763
9 | RLLVVYSWTQR [HBB_Y36_P37S] | 1.21 | 1.31 | 1.57 | 0.91 | 1.04 | 0.872 | 0.783 | 1.47 | 0.864 | 1.05 | 1 | 0.698 | 0.565 | 1.57 | 1.37 | 0.593
10 | RLPNGYGLAFR [DLK1_Y262_S260N_YF] | 0.932 | 0.699 | 0.988 | 0.858 | 0.737 | 0.616 | 0.684 | 1.5 | 0.649 | 0.51 | 0.694 | 0.62 | 0.737 | 1.06 | 0.587 | 0.707
11 | RLSELYLRRNP [CFAP410_Y68_R73P] | 0.303 | 0.352 | 0.633 | 0.533 | 0.372 | 0.317 | 0.381 | 0.813 | 0.407 | 0.377 | 0.555 | 0.631 | 0.249 | 0.83 | 0.659 | 0.477
12 | RNFGTYTAGLS [RHBDD1_Y264_D262G_YF] | 0.684 | 0.437 | 0.631 | 1.07 | 0.377 | 0.517 | 0.483 | 0.702 | 0.441 | 0.302 | 0.445 | 0.657 | 0.798 | 0.495 | 0.315 | 0.477
13 | RPDSPYSRLHD [DOK2_Y271_P274L] | 1.1 | 2.87 | 0.796 | 0.657 | 0.471 | 0.884 | 0.552 | 0.916 | 0.464 | 0.85 | 0.957 | 0.614 | 0.65 | 0.983 | 3.09 | 0.467
14 | RREWYYEVIIA [BACE1_Y260_V265A] | 0.55 | 0.415 | 0.673 | 2.9 | 0.539 | 0.926 | 4.47 | 1.3 | 0.462 | 1.52 | 0.542 | 0.513 | 0.764 | 0.733 | 1.26 | 0.442
15 | RRGTRYMFSRP [RPL21_Y13] | 0.746 | 0.483 | 0.599 | 0.554 | 0.782 | 0.922 | 0.859 | 0.952 | 0.829 | 0.837 | 0.971 | 0.853 | 0.887 | 0.594 | 0.625 | 0.768
16 | RRIHCYRGHLW [VHL_Y112_S111C] | 0.568 | 0.583 | 0.722 | 0.56 | 0.49 | 0.62 | 0.475 | 0.626 | 0.465 | 0.556 | 0.527 | 0.483 | 0.66 | 1.17 | 0.702 | 0.524
17 | RRIHSYRGQLW [VHL_Y112_H115Q] | 0.45 | 0.343 | 0.637 | 0.596 | 0.491 | 0.776 | 0.536 | 1.25 | 0.883 | 0.535 | 0.906 | 0.664 | 0.617 | 0.813 | 0.925 | 0.438

Row | Sequence | SH2 binding enrichment (SHP2-C SH2) | SH2 binding enrichment (c-Src SH2) | SH2 binding enrichment (Grb2 SH2) | phosphorylation enrichment (FGFR3) | phosphorylation enrichment (EPHB1) | phosphorylation enrichment (c-Src) | phosphorylation enrichment (FGFR1) | phosphorylation enrichment (AncSZ) | phosphorylation enrichment (Fyn) | phosphorylation enrichment (MERTK) | phosphorylation enrichment (c-Abl (mouse)) | phosphorylation enrichment (Hck) | phosphorylation enrichment (Fer (mouse)) | phosphorylation enrichment (Fes) | phosphorylation enrichment (Jak2) | phosphorylation enrichment (EPHB2)
18 | RRIHSYRGRLW [VHL_Y112_H115R] | 0.561 | 0.372 | 0.967 | 0.811 | 0.865 | 0.7 | 0.733 | 0.956 | 0.547 | 0.538 | 0.836 | 0.754 | 0.637 | 0.771 | 0.68 | 0.641
19 | RRNEEYCLLAS [ITK_Y198_D202A] | 0.498 | 0.627 | 1.11 | 0.977 | 1.55 | 0.57 | 0.888 | 0.976 | 0.536 | 0.703 | 0.522 | 0.84 | 0.594 | 0.924 | 0.741 | 0.72
20 | RRVEPYGENFN [APOA4_Y310] | 0.588 | 0.513 | 0.687 | 0.655 | 0.521 | 0.643 | 0.421 | 1.23 | 0.487 | 0.561 | 0.707 | 0.45 | 0.542 | 1.2 | 0.965 | 0.385
21 | RRVLVYRGRGA [QDPR_Y16_G17R] | 0.5 | 0.425 | 0.71 | 0.779 | 0.818 | 0.754 | 0.758 | 0.963 | 0.712 | 0.708 | 0.829 | 0.782 | 0.618 | 0.991 | 0.692 | 0.714
22 | RSDEDYLYREE [POR_Y573] | 0.748 | 0.435 | 0.738 | 1.16 | 0.756 | 0.56 | 0.784 | 1.32 | 0.761 | 0.52 | 0.813 | 0.827 | 0.559 | 1.54 | 1.48 | 0.854
23 | RSGNCYLDIRP [FBN1_Y1535] | 0.782 | 0.615 | 0.688 | 0.728 | 0.58 | 0.583 | 0.802 | 1.06 | 0.567 | 0.633 | 1.04 | 0.544 | 0.514 | 1.27 | 1.45 | 0.7
24 | RSYSPCDYQPC [TNS1_Y796_Y796C] | 0.421 | 1.17 | 0.759 | 1.28 | 17.1 | 1.56 | 2.76 | 1.12 | 0.554 | 0.726 | 0.457 | 0.777 | 0.544 | 0.935 | 0.533 | 8.45
25 | RVQKRYILDNV [RCN1_Y115_F117L] | 0.553 | 0.454 | 0.804 | 0.327 | 0.176 | 0.409 | 0.326 | 0.494 | 0.372 | 0.367 | 0.384 | 0.366 | 0.337 | 0.463 | 0.487 | 0.234
26 | SAGSSYSISVI [PAX5_Y179_G183V] | 0.686 | 0.62 | 0.856 | 0.752 | 0.553 | 0.48 | 0.485 | 0.986 | 0.688 | 0.472 | 0.807 | 0.539 | 0.572 | 0.975 | 0.835 | 0.712
27 | SARSAYQEAMD [SFN_Y151] | 0.713 | 1.06 | 0.766 | 0.539 | 0.474 | 0.353 | 0.418 | 0.81 | 0.495 | 0.38 | 0.628 | 0.445 | 0.402 | 0.854 | 0.638 | 0.584
28 | SASQEYHIVKK [PDZD2_Y557] | 0.893 | 0.792 | 0.78 | 0.538 | 0.512 | 0.441 | 0.905 | 0.779 | 0.422 | 0.507 | 0.697 | 0.513 | 0.48 | 0.676 | 0.572 | 0.527
29 | SAVTGYRVNVI [FN1_Y937_D940N] | 0.823 | 0.505 | 0.95 | 0.488 | 0.407 | 0.386 | 0.391 | 0.633 | 0.403 | 0.359 | 0.415 | 0.399 | 0.434 | 0.752 | 0.634 | 0.407
30 | SDGKRYRVPSD [HHIPL2_Y395_H391D] | 0.608 | 0.57 | 0.781 | 0.426 | 0.357 | 0.384 | 0.377 | 0.555 | 0.338 | 0.409 | 0.44 | 0.346 | 0.408 | 0.522 | 0.771 | 0.303
31 | SDVCMYRKNTY [SYNE2_Y570_I574T] | 0.592 | 0.47 | 0.796 | 0.695 | 0.477 | 0.377 | 0.429 | 0.76 | 0.405 | 0.403 | 0.684 | 0.487 | 0.401 | 0.905 | 0.67 | 0.519
32 | SECCKYKTDNP [OSMR_Y689_I691T] | 0.901 | 0.48 | 0.852 | 0.655 | 0.472 | 0.443 | 0.51 | 0.66 | 0.375 | 0.492 | 0.587 | 0.452 | 0.387 | 0.752 | 0.725 | 0.413
33 | SETSRYLSDLF [KCNJ3_Y67] | 0.989 | 0.543 | 0.942 | 0.627 | 0.726 | 0.549 | 0.544 | 0.963 | 0.504 | 0.485 | 0.844 | 0.515 | 0.555 | 1.21 | 1.17 | 0.562
